Laboratory results reported in US20110091994A1, “Methods for Screening Compounds for Treating and/or Preventing an Hepatitis C Virus Infection” (priority 2008, published 2011).
Read-outs that look alike come from different tables or passages of the source.

Tests used:
[1] = target: T1, HCV ORFs (Gal4-DB fusions) (Hepatitis C virus genotype 1b, UniProt Q9WMX2); type: binding, HCV genotype 1b, isolate con1; details: human protein as prey
T1 construct: expressed in transfected cells; host or cells: Saccharomyces cerevisiae MAV203 (IMAP1) / AH109 (IMAP2)

[2] = system: HCV ORFs (Gal4-DB fusions); type: binding, HCV genotype 1b, isolate con1; details: human protein listed by gene symbol; the value names the HCV protein it interacts with
HCV proteins = target: T2, HCV proteins (Hepatitis C virus genotype 1b, UniProt Q9WMX2); assay: Validation by Y2H pairwise matrices; type: binding;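 also: yeast two-hybrid pairwise tests of interactions first found in Y2H screens of HCV bait proteins against human cDNA libraries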
T2 construct: expressed in transfected cells

[3] = validation of interaction with HCV protein NS3
[4] = validation of interaction with HCV protein CORE
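For IMAP Y2H IMAP1 (number of IST) in this document: yeast two-hybrid screens using HCV genotype 1b proteins fused to Gal4-DB as baits against prey cDNA libraries from human spleen and foetal brain, IMAP1 via transformation and IMAP2 via mating.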
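For Interaction with viral protein in this document: yeast two-hybrid screens using HCV genotype 1b proteins fused to Gal4-DB as baits against prey cDNA libraries from human spleen and foetal brain, IMAP1 via transformation and IMAP2 via mating.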

Molecule | IMAP Y2H IMAP1 (number of IST) ([1]; HCV protein NS3 as bait) | Interaction with viral protein [2] | Y2H matrices (HCV proteins; [3]) | IMAP Y2H IMAP1 (number of IST) ([1]; HCV protein CORE as bait) | IMAP Y2H IMAP1 (number of IST) ([1]; HCV protein NS2 as bait) | Y2H matrices (HCV proteins; [4]) | Y2H matrices (HCV proteins; validation of interaction with HCV protein NS2) | IMAP Y2H IMAP1 (number of IST) ([1]; HCV protein p7 as bait) | Y2H matrices (HCV proteins; interaction with HCV protein p7)
DPF1 (protein, UniProt Q92782 1-387, looked up) Zinc finger protein neuro-d4: MATVIPGPLSLGEDFYREAIEHCRSYNARLCAERSLRLPFLDSQTGVAQNNCYIWMEKTHRGPGLAPGQIYTYPARCWRKKRRLNILEDPRLRPCEYKIDCEAPLKKEGGLPEGPVLEALLCAETGEKKIELKEEETIMDCQKQQLLEFPHDLEVEDLEDDIPRRKNRAKGKAYGIGGLRKRQDTASLEDRDKPYVCDICGKRYKNRPGLSYHYTHTHLAEEEGEENAERHALPFHRKNNHKQFYKELAWVPEAQRKHTAKKAPDGTVIPNGYCDFCLGGSKKTGCPEDLISCADCGRSGHPSCLQFTVNMTAAVRTYRWQCIECKSCSLCGTSENDDQLLFCDDCDRGYHMYCLSPPMAEPPEGSWSCHLCLRHLKEKASAYITLT | 1 | NS3 | + | – | – | – | – | – | –
EFEMP2 (protein, UniProt O95967 24-443, looked up) EGF-containing fibulin-like …: SASPQDSEEPDSYTECTDGYEWDPDSQHCRDVNECLTIPEACKGEMKCINHYGGYLCLPRSAAVINDLHGEGPPPPVPPAQHPNPCPPGYEPDDQDSCVDVDECAQALHDCRPSQDCHNLPGSYQCTCPDGYRKIGPECVDIDECRYRYCQHRCVNLPGSFRCQCEPGFQLGPNNRSCVDVNECDMGAPCEQRCFNSYGTFLCRCHQGYELHRDGFSCSDIDECSYSSYLCQYRCINEPGRFSCHCPQGYQLLATRLCQDIDECESGAHQCSEAQTCVNFHGGYRCVDTNRCVEPYIQVSENRCLCPASNPLCREQPSSIVHRYMTITSERSVPADVFQIQATSVYPGAYNAFQIRAGNSQGDFYIRQINNVSAMLVLARPVTGPREYVLDLEMVTMNSLMSYRASSVLRLTVFVGAYTF | 3 | NS3 | + | – | – | – | – | – | –
FAM120B (protein, UniProt Q96EK7 1-910, looked up) Constitutive coactivator of …: MGVRGLQGFVGSTCPHICTVVNFKELAEHHRSKYPGCTPTIVVDAMCCLRYWYTPESWICGGQWREYFSALRDFVKTFTAAGIKLIFFFDGMVEQDKRDEWVKRRLKNNREISRIFHYIKSHKEQPGRNMFFIPSGLAVFTRFALKTLGQETLCSLQEADYEVASYGLQHNCLGILGEDTDYLIYDTCPYFSISELCLESLDTVMLCREKLCESLGLCVADLPLLACLLGNDIIPEGMFESFRYKCLSSYTSVKENFDKKGNIILAVSDHISKVLYLYQGEKKLEEILPLGPNKALFYKGMASYLLPGQKSPWFFQKPKGVITLDKQVISTSSDAESREEVPMCSDAESRQEVPMCTGPESRREVPVYTDSEPRQEVPMCSDPEPRQEVPTCTGPESRREVPMCSDPEPRQEVPMCTGPEARQEVPMYTDSEPRQEVPMYTDSEPRQEVPMYTGSEPRQEVPMYTGPESRQEVPMYTGPESRQEVLIRTDPESRQEIMCTGHESKQEVPICTDPISKQEDSMCTHAEINQKLPVATDFEFKLEALMCTNPEIKQEDPTNVGPEVKQQVTMVSDTEILKVARTHHVQAESYLVYNIMSSGEIECSNTLEDELDQALPSQAFIYRPIRQRVYSLLLEDCQDVTSTCLAVKEWFVYPGNPLRHPDLVRPLQMTIPGGTPSLKILWLNQEPEIQVRRLDTLLACFNLSSSREELQAVESPFQALCCLLIYLFVQVDTLCLEDLHAFIAQALCLQGKSTSQLVNLQPDYINPRAVQLGSLLVRGLTTLVLVNSACGFPWKTSDFMPWNVFDGKLFHQKYLQSEKGYAVEVLLEQNRSRLTKFHNLKAVVCKACMKENRRITGRAHWGSHHAGRWGRQGSSYHRTGSGYSRSSQGQPWRDQGPGSRQYEHDQWRRY | 1 | NS3 | + | – | – | – | – | – | –
FBLN5 (protein, UniProt Q9UBX5 24-448, looked up) Fibulin-5: QAQCTNGFDLDRQSGQCLDIDECRTIPEACRGDMMCVNQNGGYLCIPRTNPVYRGPYSNPYSTPYSGPYPAAAPPLSAPNYPTISRPLICRFGYQMDESNQCVDVDECATDSHQCNPTQICINTEGGYTCSCTDGYWLLEGQCLDIDECRYGYCQQLCANVPGSYSCTCNPGFTLNEDGRSCQDVNECATENPCVQTCVNTYGSFICRCDPGYELEEDGVHCSDMDECSFSEFLCQHECVNQPGTYFCSCPPGYILLDDNRSCQDINECEHRNHTCNLQQTCYNLQGGFKCIDPIRCEEPYLRISDNRCMCPAENPGCRDQPFTILYRDMDVVSGRSVPADIFQMQATTRYPGAYYIFQIKSGNEGREFYMRQTGPISATLVMTRPIKGPREIQLDLEMITVNTVINFRGSSVIRLRIYVSQYPF | 32 | CORE and NS3 and NS2 | + | 1 | 1 | + | + | – | –
FBLN2 (protein, UniProt P98095 28-1184, looked up) Fibulin-2: APRQDCTGVECPPLENCIEEALEPGACCATCVQQGCACEGYQYYDCLQGGFVRGRVPAGQSYFVDFGSTECSCPPGGGKISCQFMLCPELPPNCIEAVVVADSCPQCGQVGCVHAGHKYAAGHTVHLPPCRACHCPDAGGELICYQLPGCHGNFSDAEEGDPERHYEDPYSYDQEVAEVEAATALGGEVQAGAVQAGAGGPPAALGGGSQPLSTIQAPPWPAVLPRPTAAAALGPPAPVQAKARRVTEDSEEEEEEEEEREEMAVTEQLAAGGHRGLDGLPTTAPAGPSLPIQEERAEAGARAEAGARPEENLILDAQATSRSTGPEGVTHAPSLGKAALVPTQAVPGSPRDPVKPSPHNILSTSLPDAAWIPPTREVPRKPQVLPHSHVEEDTDPNSVHSIPRSSPEGSTKDLIETCCAAGQQWAIDNDECLEIPESGTEDNVCRTAQRHCCVSYLQEKSCMAGVLGAKEGETCGAEDNDSCGISLYKQCCDCCGLGLRVRAEGQSCESNPNLGYPCNHVMLSCCEGEEPLIVPEVRRPPEPAAAPRRVSEAEMAGREALSLGTEAELPNSLPGDDQDECLLLPGELCQHLCINTVGSYHCACFPGFSLQDDGRTCRPEGHPPQPEAPQEPALKSEFSQVASNTIPLPLPQPNTCKDNGPCKQVCSTVGGSAICSCFPGYAIMADGVSCEDINECVTDLHTCSRGEHCVNTLGSFHCYKALTCEPGYALKDGECEDVDECAMGTHTCQPGFLCQNTKGSFYCQARQRCMDGFLQDPEGNCVDINECTSLSEPCRPGFSCINTVGSYTCQRNPLICARGYHASDDGTKCVDVNECETGVHRCGEGQVCHNLPGSYRCDCKAGFQRDAFGRGCIDVNECWASPGRLCQHTCENTLGSYRCSCASGFLLAADGKRCEDVNECEAQRCSQECANIYGSYQCYCRQGYQLAEDGHTCTDIDECAQGAGILCTFRCLNVPGSYQCACPEQGYTMTANGRSCKDVDECALGTHNCSEAETCHNIQGSFRCLRFECPPNYVQVSKTKCERTTCHDFLECQNSPARITHYQLNFQTGLLVPAHIFRIGPAPAFTGDTIALNIIKGNEEGYFGTRRLNAYTGVVYLQRAVLEPRDFALDVEMKLWRQGSVTTFLAKMHIFFTTFAL | 9 | CORE and NS3 | + | 1 | – | + | – | 1 | +
